Test results reported in publication doi:10.1101/2023.03.08.531793 (bioRxiv, 2023).

Target: T1, HIS-ABI3 fusion protein (Arabidopsis thaliana, UniProt Q01593 1-720)
T1 sequence (looked up): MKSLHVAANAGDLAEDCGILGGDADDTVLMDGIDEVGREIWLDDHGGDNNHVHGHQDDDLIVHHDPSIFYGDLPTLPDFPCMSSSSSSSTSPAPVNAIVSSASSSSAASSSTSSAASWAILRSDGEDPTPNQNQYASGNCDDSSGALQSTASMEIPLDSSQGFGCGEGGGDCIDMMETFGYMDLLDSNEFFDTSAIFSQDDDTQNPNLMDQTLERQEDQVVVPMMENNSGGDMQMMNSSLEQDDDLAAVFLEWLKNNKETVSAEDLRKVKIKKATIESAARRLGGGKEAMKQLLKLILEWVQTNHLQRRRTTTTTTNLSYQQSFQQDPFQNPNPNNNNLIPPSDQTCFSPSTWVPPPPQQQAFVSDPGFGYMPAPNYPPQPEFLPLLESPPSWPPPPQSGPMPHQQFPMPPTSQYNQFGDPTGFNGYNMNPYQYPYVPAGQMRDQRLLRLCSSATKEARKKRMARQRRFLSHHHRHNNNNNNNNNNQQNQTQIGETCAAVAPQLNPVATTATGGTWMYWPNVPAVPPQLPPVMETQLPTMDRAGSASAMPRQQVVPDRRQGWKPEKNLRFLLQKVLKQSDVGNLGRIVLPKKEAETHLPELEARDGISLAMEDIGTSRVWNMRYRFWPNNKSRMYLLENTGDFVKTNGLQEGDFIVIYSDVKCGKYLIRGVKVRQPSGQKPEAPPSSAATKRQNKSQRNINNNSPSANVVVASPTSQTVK
Assay: pull-down

B1: GST-ERF1 fusion protein (natural protein)
chain: not shown
  binding result: binds
